Test results: US20170029841A1, “METHODS AND COMPOSITIONS FOR SELECTIVE REGULATION OF PROTEIN EXPRESSION” (priority 2015, published 2017)
Like-named read-outs stand apart in the source and are kept apart here.

Columns and labels:
transgenic maize plants = settings: for CIPVT (LSD = 8.1): glyphosate 1.5 lbs ae/acre at V2, 0.75 at V8, 0.75 at V10, range over events; for Avg. plant height (inches) (LSD = 6.9): in vivo
[1] = system: transgenic maize R0 plants (double copy events); assay: R0 plant greenhouse glyphosate spray: vegetative tolerance and induced male sterility; format: in vivo; settings: vector configuration A
Procedure: Transformation vectors containing the recombinant DNA constructs were used with an Agrobacterium-based transformation method and maize immature embryos and techniques known in the art. Leaf samples of R0 plants were collected and molecular analysis was conducted to select transgenic plants containing a single copy (one insertion) or a double copy (two independent insertions) of the recombinant DNA construct and no presence of vector backbone. Single copy events were not sprayed with glyphosate and were selfed and advanced for R1 seed collection, while double copy events were used for R0 glyphosate spray to assess vegetative tolerance and induced male sterility. Transgenic plants that were not sprayed with glyphosate had normal anthesis, normal pollen shedding, and normal pollen development as determined by Alexandar staining and microscopic observation.
Double copy R0 events were used in testing to approximate a single copy homozygous event. Plants were sprayed with glyphosate at two different growth stages to determine if the presence of the mts-siRNA target element in the recombinant DNA construct provided vegetative glyphosate tolerance and glyphosate-induced tassel sterility. The plants were sprayed in a greenhouse with 1× glyphosate (0.75 lb ae/acre) applied at the V5 stage followed by 1× glyphosate (0.75 lb ae/acre) applied at the V8 stage. Seven days after the V5 stage glyphosate application, plants were scored for vegetative injury with scores of ≦10% injury considered as showing vegetative glyphosate tolerance (% Vegetative Tolerant). Male sterility was measured in two ways. […] Anthers were then collected and dissected to microscopically observe pollen development. Anthers for each event were tested for no viable pollen grains produced as detected by Alexandar staining under microscopic observation and scored as not producing any viable pollen (% No Pollen). In plants not sprayed with glyphosate, tassel development, anther extrusion, and pollen development were normal.
The mts-siRNA target elements were tested in multiple transformation vector configurations. Each transformation vector was used to produce multiple R0 plants with each R0 plant representing a unique transgenic event made using the same transformation vector. Data for three different transformation vector configurations are provided as Tables 11 and 12.

B1: SEQ ID NO: 8: mts-siRNA target element, nucleotide positions 247 to 441 of cDNA SEQ ID NO: 21 (nucleic acid)
DNA: AGATTGGTCATACACTAGATAGGGCTAGATCACTCGGGTCGCCACAAGTTGAAGAATGCAAAGAGTGTCCACATGATTTCATGGTGATGAACAGTGATTTTATGAGCAAACTAGCAAAGGATAATCAGTTGCATATATGTGATGAAGACCGATCAGTTTCCGAGCAAAGTAGCAAATGAGTCATCGAAGCTGTCA
modifications: Zea mays
In the case of B1, the “AES90+8 (LSD = 10)” value (transgenic maize plants; average anther extrusion at S90+8, same glyphosate regimen, listed as 8) is reported as 15.75-17.85%, the “Seed Yield bu/acre (LSD = 24.7)” value (transgenic maize plants; end of season) is reported as 80-90 bu/acre and the “CIPVT (LSD = 8.1)” value (transgenic maize plants) is reported as “No significant difference”. The “CIPVT (LSD = 8.1)” value (transgenic maize plants; listed as 8) was 2.5-2.7%, the “Avg. plant height (inches) (LSD = 6.9)” value (transgenic maize plants) was “No significant difference” and the “Avg. plant height (inches) (LSD = 6.9)” value (transgenic maize plants; listed as 8) was 80.1 inches. The “% Vegetative Tolerant” value ([1]; glyphosate 0.75 lb ae/acre at V5 then V8, <=10% injury 7 days after V5 spray, listed as 8) was 90%, the “% Completely Male-sterile” value ([1]; no anther extrusion up to S90+12 after V8 glyphosate, listed as 8) was 100% and the “% No Pollen” value ([1]; no viable pollen by Alexandar staining) was 50%.
